Source: PMC10484793

Key:
C17orf80 [1] = target: T1, C17orf80 (Homo sapiens, UniProt Q9BSJ5 1-609); assay: EMSA
C17orf80 [2] = target: T1, C17orf80; assay: EMSA; remark: listed apart in the source

T1 sequence (Q9BSJ5 whole entry): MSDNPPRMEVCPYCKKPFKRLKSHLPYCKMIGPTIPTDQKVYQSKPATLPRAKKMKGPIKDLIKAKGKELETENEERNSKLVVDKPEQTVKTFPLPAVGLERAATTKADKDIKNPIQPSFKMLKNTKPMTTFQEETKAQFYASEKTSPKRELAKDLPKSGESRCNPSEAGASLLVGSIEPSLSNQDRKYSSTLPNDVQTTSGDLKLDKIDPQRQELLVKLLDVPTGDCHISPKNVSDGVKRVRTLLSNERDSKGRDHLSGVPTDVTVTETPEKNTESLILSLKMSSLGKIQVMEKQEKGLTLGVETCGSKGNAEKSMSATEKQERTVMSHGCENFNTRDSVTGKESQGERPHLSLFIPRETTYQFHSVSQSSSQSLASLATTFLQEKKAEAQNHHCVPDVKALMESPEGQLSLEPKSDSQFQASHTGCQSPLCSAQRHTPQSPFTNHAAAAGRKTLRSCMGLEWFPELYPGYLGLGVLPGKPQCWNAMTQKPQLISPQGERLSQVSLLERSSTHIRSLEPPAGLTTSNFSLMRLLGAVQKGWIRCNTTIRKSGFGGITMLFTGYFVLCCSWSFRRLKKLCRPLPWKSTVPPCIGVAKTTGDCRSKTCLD

B1: mito dsDNA (dsDNA)
DNA 1: TACTCCTCAATTACCCACATAGGATGAATAATAGCAGTTCTACCGTACAA
DNA 2: TTGTACGGTAGAACTGCTATTATTCATCCTATGTGGGTAATTGAGGAGTA
In the case of B1, the Kd (C17orf80 [1]) is reported as 46 ± 7 nM.

TACTCCTCAATTACCCACATAGGATGAATAATAGCAGTTCTACCGTACAA (ssDNA) [mito ssDNA]: no binding (C17orf80 [2]).

B2: nuc dsDNA (dsDNA)
DNA 1: TTTATTTCTGAGACGGGGTCTTGTGTTGCCCAGGCTGGAGTGTAATGGCA
DNA 2: TGCCATTACACTCCAGCCTGGGCAACACAAGACCCCGTCTCAGAAATAAA
Work on B2 yielded a Kd (C17orf80 [1]) of 49 ± 3 nM.
